The text below walks through data of patent US11672873 (NANTBIO, dated 2023).

The test addresses T1, B7-H4 expressed on the human breast cancer cell line SkBr3 and on the B7-H4 expressing cell line MX-1 (human (SkBr3 is called a human breast …, UniProt Q7Z7D3 25-282)).
T1 construct: whole, on cells; also called VTCN1; B7x
T1 sequence (looked up): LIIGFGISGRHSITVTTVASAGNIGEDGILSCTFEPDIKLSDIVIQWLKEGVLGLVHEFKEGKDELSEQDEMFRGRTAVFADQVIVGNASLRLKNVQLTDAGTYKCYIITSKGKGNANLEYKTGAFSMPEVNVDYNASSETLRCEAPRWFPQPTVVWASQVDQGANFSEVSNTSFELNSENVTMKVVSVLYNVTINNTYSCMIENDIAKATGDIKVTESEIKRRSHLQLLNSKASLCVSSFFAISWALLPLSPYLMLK
As to the kind of experiment: staining of SkBr3 cells, antibody at 10 ug/ml (FIG. 1).

B1: anti-B7-H4 antibody 801 (antibody, V domains shown)
VH: EVQLVESGGGLVQPGGSLRLSCAASGFTFNSYAMHWVRQAPGKGLEWVSAISGNGGSTRYADSVKGRFTISRDNSKNTLYLQMNSLRAEDTAVYYCARDRFRKVHGFDVWGQGTLVTVSS
VL: DIQMTQSPSSLSASVGDRVTITCQASQDISNYLNWYQQKPGKAPKLLIYDASNLETGVPSRFSGSGSGTDFTFTISSLQPEDIATYYCQQDATFPLTFGQGTKVEIK
Consider B1, for which the binding result was “binds”.

B2: anti-B7-H4 antibody 817 (antibody, V domains shown)
VH: EVQLVESGGGLVQPGGSLRLSCAASGFTFSSYAMHWVRQAPGKGLEWVSAISGSGGSTRYADSVKGRFTISRDNSKNTLYLQMNSLRAEDTAVYYCARGRWSKWGFDVWGQGTLVTVSS
VL: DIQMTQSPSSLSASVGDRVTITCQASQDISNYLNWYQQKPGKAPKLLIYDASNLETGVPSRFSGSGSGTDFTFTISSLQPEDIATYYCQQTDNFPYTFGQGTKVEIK
Turning to B2, the binding result is “binds”.
